T1: corticotropin releasing factor 2 receptor
T1 sequence (Q13324 whole entry, species assumed, looked up): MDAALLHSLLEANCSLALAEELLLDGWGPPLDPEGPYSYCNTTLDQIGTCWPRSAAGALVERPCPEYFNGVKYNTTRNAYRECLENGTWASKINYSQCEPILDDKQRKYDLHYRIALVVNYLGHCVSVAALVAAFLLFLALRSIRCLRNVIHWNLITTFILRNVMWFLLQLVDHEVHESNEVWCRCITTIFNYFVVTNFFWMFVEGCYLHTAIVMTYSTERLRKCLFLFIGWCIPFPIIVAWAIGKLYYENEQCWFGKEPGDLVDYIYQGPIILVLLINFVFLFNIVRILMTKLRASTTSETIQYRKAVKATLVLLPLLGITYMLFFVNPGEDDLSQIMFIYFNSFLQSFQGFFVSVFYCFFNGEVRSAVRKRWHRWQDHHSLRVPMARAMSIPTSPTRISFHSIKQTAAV

B1: SEQ ID NO 384 (peptide)
peptide: DNPSLSIDVPLLLLRTLLELEKTQSQRERAEQNARIFARV-NH2
B2: SEQ ID NO 387 (peptide)
peptide: DNPSLSIDVPLYLLRTLLELEKTQSQRERAEQNARIFARV-NH2
B3: SEQ ID NO 386 (peptide)
peptide: DNPSLSIDVPFFLLRTLLELEKTQSQRERAEQNARIFARV-NH2
B4: SEQ ID NO 213 (peptide)
peptide: ZGPPISIDLPQWLLRKMIEIEKQEKEKQQAANNRLLLDTI
modifications: C-terminal amide
B5: SEQ ID NO 218 (peptide)
peptide: B4 peptide with Q11L
modifications: C-terminal amide
B6: SEQ ID NO 216 (peptide)
peptide: B4 peptide with Q11W
modifications: C-terminal amide
B7: SEQ ID NO 227 (peptide)
peptide: B4 peptide with W12Y, R34A, D38A
modifications: C-terminal amide
B8: SEQ ID NO 225 (peptide)
peptide: B4 peptide with Q11Y, W12Y, R34A, D38A
modifications: C-terminal amide
B9: SEQ ID NO 219 (peptide)
peptide: B4 peptide with Q11H, W12F
modifications: C-terminal amide
B10: SEQ ID NO 220 (peptide)
peptide: B4 peptide with Q11Y, W12F
modifications: C-terminal amide
B11: SEQ ID NO 221 (peptide)
peptide: B4 peptide with W12F
modifications: C-terminal amide
B12: SEQ ID NO 215 (peptide)
peptide: B4 peptide with Q11Y
modifications: C-terminal amide
B13: SEQ ID NO 222 (peptide)
peptide: B4 peptide with Q11A, W12F
modifications: C-terminal amide
B14: SEQ ID NO 214 (peptide)
peptide: IVLSLDVVIGLLQILLEQARARAAREQATTNARILARV-NH2
B15: SEQ ID NO 382 (peptide)
peptide: ZGPPISIDVPFQLLRKVIEIEKQEKEKQQAANNARLLDTI
modifications: C-terminal amide
B16: SEQ ID NO 383 (peptide)
peptide: B15 peptide with D38A, T39R
modifications: C-terminal amide
B17: SEQ ID NO 228 (peptide)
peptide: B4 peptide with Q11F, W12H, R34A
modifications: C-terminal amide
B18: SEQ ID NO 226 (peptide)
peptide: B4 peptide with Q11Y, W12Y, R34A
modifications: C-terminal amide
B19: SEQ ID NO 229 (peptide)
peptide: B4 peptide with Q11F, W12H, R34A, D38A
modifications: C-terminal amide
B20: SEQ ID NO 217 (peptide)
peptide: B4 peptide with Q11F
modifications: C-terminal amide
B21: SEQ ID NO 223 (peptide)
peptide: B4 peptide with Q11F, W12F
modifications: C-terminal amide
B22: SEQ ID NO 212 (peptide)
peptide: B4 peptide with Q11H, W12Q
modifications: C-terminal amide
B23: SEQ ID NO 224 (peptide)
peptide: B4 peptide with W12Y, R34A
modifications: C-terminal amide
B24: SEQ ID NO 385 (peptide)
peptide: DNPSLSIDVPLFLLRTLLELEKTQSQRERAEQNARIFARV-NH2

Where a chain is given by its changes, count along the chain named. Ends that are not written are not given here.

One assay deals with corticotropin releasing factor 1 receptor. The experiment in a line: cell-based or functional assay.
B1: the “CRF1R EC50” value is 1000 nM and the “CRF1R Emax %” value is 70.3%.
For B2, in that order: 1000 nM and 50.1%.
Taken in the same sequence, the figures for B3 were 1000 nM and 78.2%.
For B4, in that order: 1000 nM and 76%.
With B5, the “CRF1R EC50” value came out at 98.4 nM and the “CRF1R Emax %” value was determined as 100%.
For B6, in that order: 49.8 nM and 98%.
For B7, in that order: 918 nM and 18%.
As for B8, the “CRF1R EC50” value came out at 220 nM and the “CRF1R Emax %” value was found to be 97%.
For B9, in that order: 80.9 nM and 100%.
Taken in the same sequence, the figures for B10 were 63.6 nM and 81%.
For B11, in that order: 236 nM and 100%.
With B12, the “CRF1R EC50” value was 188 nM and the “CRF1R Emax %” value was 100%.
For the molecule B13, the “CRF1R EC50” value turned out to be 384 nM and the “CRF1R Emax %” value was found to be 95%.
For B14, in that order: 100 nM and 4%.
Turning to B15, the “CRF1R EC50” value worked out at 1000 nM and the “CRF1R Emax %” value amounted to 8%.
Taken in the same sequence, the figures for B16 were 1000 nM and 55%.
For B17, in that order: 276 nM and 100%.
For B18, in that order: 315 nM and 95%.
Consider B19, for which the “CRF1R EC50” value is 298 nM and the “CRF1R Emax %” value came to 100%.
B20: the “CRF1R EC50” value was 94.7 nM and the “CRF1R Emax %” value worked out at 100%.
Taken in the same sequence, the figures for B21 were 48.1 nM and 81%.
Taken in the same sequence, the figures for B22 were 445 nM and 100%.
For the molecule B23, the “CRF1R EC50” value is 1000 nM and the “CRF1R Emax %” value was 27%.
On to B24, for which the “CRF1R EC50” value amounted to 1000 nM and the “CRF1R Emax %” value came out at 46%.

The target in a further assay is T1, corticotropin releasing factor 2 …. The experiment in a line: cell-based or functional assay.
For the molecule B1, the “CRF2R EC50” value is 7.1 nM and the “CRF2R Emax %” value amounted to 97.3%.
Taken in the same sequence, the figures for B2 were 17.9 nM and 100%.
For B3, in that order: 8.7 nM and 96%.
Consider B4, for which the “CRF2R EC50” value was found to be 22.3 nM and the “CRF2R Emax %” value was 99%.
For B5, in that order: 4.8 nM and 96%.
Taken in the same sequence, the figures for B6 were 9.9 nM and 90%.
For B7, in that order: 33.6 nM and 95%.
As for B8, the “CRF2R EC50” value worked out at 4.8 nM and the “CRF2R Emax %” value was 89%.
In the case of B9, the “CRF2R EC50” value was found to be 7.8 nM and the “CRF2R Emax %” value came to 98%.
For B10, in that order: 4.1 nM and 98%.
For B11, in that order: 8.5 nM and 100%.
Turning to B12, the “CRF2R EC50” value amounted to 4 nM and the “CRF2R Emax %” value worked out at 100%.
Taken in the same sequence, the figures for B13 were 9.4 nM and 100%.
Taken in the same sequence, the figures for B14 were 74.3 nM and 60%.
In the case of B15, the “CRF2R EC50” value came out at 39.5 nM and the “CRF2R Emax %” value is 100%.
Taken in the same sequence, the figures for B16 were 9.31 nM and 96%.
Turning to B17, the “CRF2R EC50” value was found to be 7.1 nM and the “CRF2R Emax %” value worked out at 100%.
For B18, in that order: 7.6 nM and 100%.
For B19, in that order: 10.3 nM and 100%.
Taken in the same sequence, the figures for B20 were 4.7 nM and 95%.
For the molecule B21, the “CRF2R EC50” value is 3 nM and the “CRF2R Emax %” value is 92%.
Taken in the same sequence, the figures for B22 were 21.3 nM and 100%.
In the case of B23, the “CRF2R EC50” value amounted to 26.9 nM and the “CRF2R Emax %” value was 100%.
For B24, in that order: 10.2 nM and 100%.
